{
  "source": "patent US20250064890A1",
  "about": "“PROTEIN COMPOSITIONS FOR THE TREATMENT OF INFLAMMATORY DISEASES” (Unichem Laboratories Limited, priority 2021, published 2025)",
  "molecules": {"B1": {"name": "SEQ ID NO 2: recombinant lectin, variant of the S. rolfsii lectin amino acid sequence (reported as Rec-2 in WO 2010/095143) (protein)", "chain": "TYKITVRVYQTNPDAFFHPVEKTVWKYANGGTWTITDDQHVLTMGGSGTSGTLRFHADNGESFTATFGVHNYKRWCDIVTNLAADETGMVINQQYYSQKNREEARERQLSNYQVKNAKGRNFQIVYTEAEGNDLHANLIIG"}},
  "type_in_all_cases": "cell-based, human",
  "key": {"[1]": {"tested_on": "oral (buccal) mucosa cells (TR146)", "assay": "Cytoprotective effect against 5-FU induced damage (MTT)", "method": "The cell viability was assessed by (MTT) assay and compared with positive control (Cells treated with Amifostine, EGCG and EGF and negative assay (untreated cells), wherein the control was the cells that underwent chemotherapy/radiotherapy.\n(§1) The protective effect of the recombinant lectin on survival of TR146 cells against 5-FU induced damage was determined using following calculations:\n(§2) The viability of cells was determined as: % Cell viability=(100−% Cytotoxicity); • where, the percentage cytotoxicity corresponding to each treatment was calculated as: % Cytotoxicity=[(R−X)/R]*100, wherein X=Absorbance of cells treated with 5-FU or radiation damage/TI+5-FU, R=Absorbance of Control cells (Untreated) and Percentage protection was calculated as:\n(§3) {(Absorbance of TI+5-FU or radiation)−(Absorbance of 5-FU or radiation alone)/(Absorbance of Untreated)−(Absorbance of 5-FU alone)}*100"}, "[2]": {"tested_on": "oral (buccal) mucosa cells (TR146)", "method": "as §1, §2, §3"}, "[3]": {"tested_on": "oral (buccal) mucosa cells (TR146)", "assay": "Sub(G0/G1) cell population (cell cycle) against 5-FU induced damage", "conditions": "for % Decrease in Apoptotic cells (with respect to control): Sub G0/G1", "method": "(§4) To determine the effect of test item on cell cycle, oral buccal mucosal cells (TR146) were incubated overnight in 5% CO2 incubator at 37° C. for 24 h. […] After 24 h of treatment, cells were exposed to chemotherapy (5-FU 10 mM) for 24 h or radiotherapy (Gamma radiation (3.5 kGy) using Cobalt 60) for 2 h.\n(§5) After incubation, cells were harvested by trypsinization and processed for Cell cycle assay. Accordingly, cells were harvested into prelabeled centrifuge tubes and centrifuged at 450 g for 5 min at room temperature (RT, low brake). The supernatants were removed carefully and discarded. 1 ml of 1× phosphate buffer saline (PBS) was added to the pellet and resuspended gently to make homogenous suspension. Cells were centrifuged at 450 g for 5 min, RT (low brake). The supernatant was carefully removed leaving behind approx. 100 μl of PBS. Cells were resuspended gently yet thoroughly in residual PBS. Ice-cold 70% ethanol (100 μl) was added drop-wise into cells in each tube while vortexing at low speed (fixation step). Cells stored at 4° C. for 24 h were centrifuged at 450 g for 5 min, RT (low brake). The supernatant was carefully removed without touching the pellet and discarded. 1 ml of 1×PBS was added into pellet and resuspended gently. Cells were incubated for 1 minute at RT. Cells were centrifuged at 450 g for 5 min, RT (low brake). The supernatant was removed carefully without touching the pellet, leaving behind approx. 20-50 μl of PBS. 200 μl of cell cycle reagent was added into each tube. Cells were resuspended gently and mixed. Cells were incubated for 30 min at RT in the dark. The stained samples were transferred into 96-well plates and acquired on flow cytometer (Guava technologies). Percentage of cells in Sub (G0/G1) phase were determined based on the concept that cell cycle reagent contains PI stain, which stains DNA of cells in different phases of cell cycle; Sub (G0/G1), G1, S, G2 and M. Cells in Sub (G0/G1) phase correspond to apoptotic cells. Percent inhibition in apoptotic cells is determined by the formula:\n(§6) =[(% Sub(G0/G1) cells in 5-FU/radiation alone)−(% Sub(G0/G1) cells in TI+5-FU/radiation)/% Sub(G0/G1) cells in 5-FU/radiation alone]*100"}, "[4]": {"tested_on": "oral (buccal) mucosa cells (TR146)", "assay": "Sub(G0/G1) cell population (cell cycle) against radiation induced damage", "conditions": "for % Decrease in Apoptotic cells (with respect to control): Sub G0/G1", "method": "as §4, §5, §6"}, "NF-kB": {"tested_on": "NF-kB", "assay": "Multiplex analysis, radiotherapy, TR146 cell lysates", "method": "Oral buccal mucosal cells (TR146) cells were incubated overnight at 37° C. in 5% CO2 incubator. […] The cells were then stimulated with 5-FU (10 mM) for another 24h for chemotherapy and with gamma radiation (3.5 kGy) using Cobalt 60 for radiotherapy. After 24 h, cell culture supernatants were collected from each well and stored at −20° C. till multiplex analysis. For NF-kB estimations, cell lysates were prepared. Levels of biomarkers were estimated using Magpix® multiplex machine. The cells treated with Amifostine (along with 5-FU or radiation) were considered as positive control (PC). Untreated cells (5-FU or radiation alone treated) were used as negative control (NC).\nThe percent modulation in each sample was determined as follows:\n[{Concentration of biomarkers (pg/ml) in Control cells (5-FU or radiation alone treated)−Concentration of biomarkers (pg/ml) in SEQ ID NO: 2+5-FU or radiation treated cells)}/Concentration of biomarkers (pg/ml) in Control cells (5-FU or radiation alone treated)]*100"}, "[5]": {"conditions": "0.01 μg/ml + Radiation (3.5 kGy)"}, "[6]": {"conditions": "0.1 μg/ml + Radiation (3.5 kGy)"}},
  "note": "Read-outs that look alike come from different tables or passages of the source.",
  "data": [
    {"molecule": "B1", "values": [
      {"measurement": "cell viability against 5-FU induced cell damage", "setting": "[1]", "value": "56.8-78.4%"},
      {"measurement": "% Protection", "setting": "[1]; 1 μg/ml + 5-FU (5 mM)", "value": 26, "unit": "%"},
      {"measurement": "% Protection", "setting": "[1]; 10 μg/ml + 5-FU (5 mM)", "value": 50.6, "unit": "%"},
      {"measurement": "% Protection", "setting": "[1]; 25 μg/ml + 5-FU (5 mM)", "value": 51, "unit": "%"},
      {"measurement": "% Protection", "setting": "[1]; 50 μg/ml + 5-FU (5 mM)", "value": 63, "unit": "%"},
      {"measurement": "% Protection", "setting": "[1]; 100 μg/ml + 5-FU (5 mM)", "value": 53, "unit": "%"},
      {"measurement": "% Protection", "setting": "[2]; [5]", "value": 2.5, "unit": "%"},
      {"measurement": "maximum cytoprotection", "setting": "[2]; 0.01 μg/ml-25 μg/ml, radiation", "value": 54.1, "unit": "%"},
      {"measurement": "% Protection", "setting": "[2]; [6]", "value": 14.1, "unit": "%"},
      {"measurement": "% Protection", "setting": "[2]; 1 μg/ml + Radiation (3.5 kGy)", "value": 47.4, "unit": "%"},
      {"measurement": "% Protection", "setting": "[2]; 10 μg/ml + Radiation (3.5 kGy)", "value": 54.1, "unit": "%"},
      {"measurement": "% Protection", "setting": "[2]; 25 μg/ml + Radiation (3.5 kGy)", "value": 8.9, "unit": "%"},
      {"measurement": "% Apoptotic cells (Sub G0/G1)", "setting": "[3]; 0.1 μg/ml + 5FU (10 mM)", "value": 11.4, "unit": "%"},
      {"measurement": "% Decrease in Apoptotic cells (with respect to control)", "setting": "[3]; 0.1 μg/ml + 5FU (10 mM)", "value": 63.1, "unit": "%"},
      {"measurement": "% Apoptotic cells (Sub G0/G1)", "setting": "[3]; 10 μg/ml + 5FU (10 mM)", "value": 6.8, "unit": "%"},
      {"measurement": "% Decrease in Apoptotic cells (with respect to control)", "setting": "[3]; 10 μg/ml + 5FU (10 mM)", "value": 78, "unit": "%"},
      {"measurement": "% Apoptotic cells (Sub G0/G1)", "setting": "[3]; 25 μg/ml + 5FU (10 mM)", "value": 14.2, "unit": "%"},
      {"measurement": "% Decrease in Apoptotic cells (with respect to control)", "setting": "[3]; 25 μg/ml + 5FU (10 mM)", "value": 54.1, "unit": "%"},
      {"measurement": "% Apoptotic cells (Sub G0/G1)", "setting": "[3]; 50 μg/ml + 5FU (10 mM)", "value": 40.7, "unit": "%"},
      {"measurement": "% Decrease in Apoptotic cells (with respect to control)", "setting": "[3]; 50 μg/ml + 5FU (10 mM)", "value": "−32.0", "unit": "%"},
      {"measurement": "% Apoptotic cells (Sub G0/G1)", "setting": "[4]; [5]", "value": 15.2, "unit": "%"},
      {"measurement": "% Decrease in Apoptotic cells (with respect to control)", "setting": "[4]; [5]", "value": 56.9, "unit": "%"},
      {"measurement": "% Apoptotic cells (Sub G0/G1)", "setting": "[4]; [6]", "value": 14.3, "unit": "%"},
      {"measurement": "% Decrease in Apoptotic cells (with respect to control)", "setting": "[4]; [6]", "value": 59.5, "unit": "%"},
      {"measurement": "% Apoptotic cells (Sub G0/G1)", "setting": "[4]; 1 μg/ml + Radiation (3.5 kGy)", "value": 22.3, "unit": "%"},
      {"measurement": "% Decrease in Apoptotic cells (with respect to control)", "setting": "[4]; 1 μg/ml + Radiation (3.5 kGy)", "value": 36.9, "unit": "%"},
      {"measurement": "% Apoptotic cells (Sub G0/G1)", "setting": "[4]; 10 μg/ml + Radiation (3.5 kGy)", "value": 35.7, "unit": "%"},
      {"measurement": "% Decrease in Apoptotic cells (with respect to control)", "setting": "[4]; 10 μg/ml + Radiation (3.5 kGy)", "value": "−1.3", "unit": "%"},
      {"measurement": "Percentage Inhibition NF-kB", "setting": "NF-kB; [5]", "value": 11.8, "unit": "%"},
      {"measurement": "Percentage Inhibition NF-kB", "setting": "NF-kB; [6]", "value": 9.9, "unit": "%"},
      {"measurement": "Percentage Inhibition NF-kB", "setting": "NF-kB; 1 μg/ml + Radiation (3.5 kGy)", "value": 9.9, "unit": "%"},
      {"measurement": "Percentage Inhibition NF-kB", "setting": "NF-kB; 10 μg/ml + Radiation (3.5 kGy)", "value": 4, "unit": "%"},
      {"measurement": "Percentage Inhibition NF-kB", "setting": "NF-kB; 25 μg/ml + Radiation (3.5 kGy)", "value": "−4", "unit": "%"}
    ]}
  ]
}
